Measurements published in the DeepSol protein solubility set.

assay: soluble on expression in E. coli; label from the status in PepcDB or PDB records

Sequence	soluble on expression in E. coli
MSLENIEKIEVRGIRASNKANINEKRFSNAVVDAVTAEDIGKFPDSDVGQALGRVPGVTVGRTFGQGSSVSIRGTDPLMTLTTLNGQNVASTGWYDQMNVDRSFNYSMLPSELIGGMEVYKSTQANLVEGGIGGTVIVKTRKPLDMDANSVFASVKGEYGSVNEDVAPELSGLYSWKNDDETFGVLLAGSYIDREYLRTGTEADLDWGGRSSVQPSSFLQEQERTALDATVQFRPTDNLEFGAHVLSLKLGADSIGANMYIETDTNWGEGASHCKQFNAAGVCTLSVTPESDPSNVFFQNWARKGEMTSDTFELNADYKGDGFAISGVAGKTKAEGGTQMSANFGYGWWGDKFGQVKWAGTVDATGKQIDINGRDMGFTQDQLDTTVGTSTWTGIKGPNSDEETYLQLDVDFDLDFGVINKFETGVRYTQHEFEKSEYRAIYDPAKKNEFKTSDLYSGTMKLGYDGWTIPKADLDAMINATESLVDQFAYSRSAYGLIEEDNFSMYGMFSFDGEGFRGNFGLRYIQTDVTSSGHIIDNSPADILGVNQGWSEEIHSISDSYSDVLPSFNISFDLAPDLILRMSAGQAITRPNYDNLFLSTSTGYPDDRRGNEEITYGNPGLKPMKSSQADLSLEYYYGDGNLVSATYFIKDISNFIVATTQYNQQIGVVNNDLETPADNWTVNNYENAGGGEIDGIELQLNHAFENGFGVNANYTYADGTAPAEVYTDNIGMFTESSKHSANLVGYWENDDFSARAAYNWRSEYMVREYGKYYGNRMHDAFGTLDVTLGWNVTEAIALRLEIVNLTAEDDVQYGAAGVGTEVKPALQDDFPAWSFKGETTYKLGASFVFEGHHHHHH	not soluble
SLEKKDTNSLKLLLIGNTGIGEYKSRAERKGLWYKLKRFLWTNEFDQTVSALAKWHAEEKADAVLGLGDFLGIPGPLSARDERFTKRWYDIFVKDAKLDIPWLMTLGEEEALVNPSASVRHHYTGEHPNWYMPNDAYTATFSFSTSMTMANGTIQHEAFNATVINVNTWNLFVGNPIANNMQSMMDRLMWLSDQLYTAVNQTTNWLIIMGHLPLVSTGPQGEQGRLQYVDDLYKNGQPRGPEAVLIQMLLSHYQVDLYVSAHDHFMEYVALEDLSKNTTTAFITSGAAVRLLDKDVGRGWIGRLRGALYPILCWSGRRILYAFHPG	soluble
ELQVIQPEKSVSVAAGESATLRCAMTSLIPVGPIMWFRGAGAGRELIYNQKEGHFPRVTTVSELTKRNNLDFSISISNITPADAGTYYCVKFRKGSPDDVEFKSGAGTELSVRAKPSAPVVSG	soluble
MKKQVVEVLVEGGKATPGPPLGPAIGPLGLNVKQVVDKINEATKEFAGMQVPVKIIVDPVTKQFEIEVGVPPTSQLIKKELGLEKGSGEPKHNIVGNLTMEQVIKIAKMKRSQMLALTLKAAAKEVIGTALSMGVTVEGKDPRIVQREIDEGVYDELFEKAEKE	soluble
MFDGIGFMELLLIGVLGLIVLGPERLPVAVRSVTSWVRAMKRMANSVKEELEQELKIEQLHADLKKAESKGLSNLSPELQESIEQLKQAAQSVNRPYQVQDTPSAQDNQIHNPASQTVSTEASSTSASSAPKSESIQGEDPRSNTKANGLEHHHHHH	soluble
MAHHHHHHMGTLEAQTQGPGSMSEPLLLQDRDERGVVTLTLNRPQAFNALSEAMLAALGEAFGTLAEDESVRAVVLAASGKAFCAGHDLKEMRAEPSREYYEKLFARCTDVMLAIQRLPAPVIARVHGIATAAGCQLVAMCDLAVATRDARFAVSGINVGLFCSTPGVALSRNVGRKAAFEMLVTGEFVSADDAKGLGLVNRVVAPKALDDEIEAMVSKIVAKPRAAVAMGKALFYRQIETDIESAYADAGTTMACNMMDPSALEGVSAFLEKRRPEWHTPQPSTA	soluble
GHVLLLRPVRSEDVEPLQGVFALMGPQEIRERFAPSATGSSERFQQLTNPNAKREIVLVAAEQLPPGEAMIAALARASIVPNSRHAEYIILVSSFVSGQGLGRQLLRKLVKWARGKYLDHLYGDILERNRPMLELAESLGFQRESHPESPDLVRMTLKL	not soluble
MSLMPPFLRILGIETSCDETAASIVVRHADGRGEIVSDVVLSQLEEHSAYGGVVPEIAARAHVEALDTLVEEALDQAGVKLADVDAIAATSGPGLIGGLLVGLMTGKAIAKAAGKPLYAINHLEGHALTARLTDGLSFPYLMLLVSGGHTQLVLVRGVGEYERWGTTIDDALGEAFDKTAKLLGLPYPGGPAVENAAAKGDPDRFPLPRPMVGEARLDFSFSGLKTAVRQAATAIAPLSEQDIADICASFQKAVSRTLKDRIGRGLARFKVEFPHINGEPALVVAGGVAANQEIRQTLQALCDTHGFRFVAPPHRLCTDNAAMIAWAGLERMAEGRQADALEVAPRSRWPLDGSAETLIGFGKRGAKAEGHHHHHH	not soluble
MSYQSLLTHRCDIYHLQEKKENRKQKFGVPVEDVQPVFSYPDEPDIENQPCYFTEKSQSIIQQESNVSIYQSFLVHFPATADIRVNDRAVWDGTAYKLQKPRKIRNHHWEVTAVREVEYLLEHHHHHH	soluble
MAHHHHHHMKIHIFLIATIYVLFSEKLIKWTTASTTQGGDTDTHPGTPPGEGSDVSQGAGQDASQGAGQDANPDPTLPKPPSPPADDTKDTGSQGDADSSSSKIEIPPLVKPENHKTIVSAMLKNYKGVKVTGTCGADFGLFLVPHIYVHVKSEDTEIELSSELAPPEMQTKFDKTQLKKFCVKDDTKKFDFIAYIYKDILVFKWKVYEEGLSKEQDVDEMKYLLPNLKQPITSIQVHSWTGTKESYILESKDYVLGEGMPEKCDAIATDCFLSGFTDIGKCFQCKLLMQEKNINDSCFKYVSSNQKELIKKQLKITAQDDEESSEYHLSESIKNLLKNIYKKNNDDNKKKELLHFENVNSALKSELLNYCNLLKEVNMNGVLKDHQLGNVQDVFNNLTKLLEEHKEENDNVLYHKMKNEALCLKNVNDWMKNKTGLLLPQLSYDLTYKNNNFTEFTQNKSYTSQNIVDKLYCNHEYCNRLKDHNNCISKINVEDQKNCALSWAFASKYHLETIKCMKGYEPLNASVLYVTNCLKNKNKDVCTEGSNPLVFLETIEEKGFLPTESNYPYDQSKVGDICPQLQNDWDNVFENTKVLDYNNGPFSVGTKGYIAYESEAFQKDMHSFVKLVKDEIMNKGSVIAYVKAENVLGYELNGKKVQNLCGDKTPDHVVNIVGYGNYINNKGEKKSYWIVRNSWGKYWGDDGYFKVDMYGPSTCEDNFIHTVVVFNVQVPINEKFDKKEHDIYNYYLKTSPEFYHNLYYKTFNS	not soluble
LWGIFVEQADGHYRVRLRSKIHPINEIAKEHDGGGHPLASGANSYSLEENEIIY	soluble
KINDFSIKHGLTEKFVVSFAGTLGFSQDMEVIIRAANELKEYKDIVFIIVGNGVRLEESKKLAESLNLQNIRFIPSVPREIYPLVLHSSDVSLATLTKDVKTPVVPSKILSIMSAGIPVIAVMNLEGDAPKLVEKANAGFAIPAGDYKSLAEKILLLYKNPELRESLGRNGRRY	not soluble
MGKIFCIVQARMGSERLQGKVIKPILKKPMVIYTLDRLKKSKYIDKIVLATSSMERETPLVESCEEYGYDVFKGSEANVLKRYEQAAEKYGANIEDAVIRVTGDCPLIDPIIVDNVVTKFLSSDYDYVRLDVPNTFVRGFDVEIFSMKALKTVNSLINGGKIPKEEADMYKEHVTLYMYKHPNEFKVGYVKGDEFYSKDYRLCVDTKEDFELVKNIYEHFNDEFVSSKNVINYLDRNSEIAQINNDIKQKEVLEHHHHHH	soluble
MAALRYRRFLKLCEEWPVDETKRGRDLGAYLRQRVAQAFREGENTQIAEPEACDQMYESLARLHSNYYKHKYPRPRDTSFSGLSVEEYKLILSTDTLEEFQEMNKSMWKKLQEKFAPTRPEEKHKAWTRVLSRPRT	soluble
MSFVPSEVRLDHTFLEWDKEWIFQRLPKTEIQIPREFEPDIETDAIPTIARQPADPNTTWNETGLDQIQMGPTINSTKN	not soluble
MSLNKELIQHAAYAAIERILNEYFREENLYQVPPQNHQWSIQLSELETLTGEFRYWSAMGHHMYHPEVWLIDGKSKKITTYKEAIARILQHMAQSADNQTAVQQHMAQIMSDIDNSIHRTARYLQSNTIDYVEDRYIVSEQSLYLGHPFHPTPKSASGFSEADLEKYAPECHTSFQLHYLAVHQDVLLTRYVEGKEDQVEKVLYQLADIDISEIPKDFILLPTHPYQINVLRQHPQYMQYSEQGLIKDLGVSGDSVYPTSSVRTVFSKALNIYLKLPIHVKITNFIRTNDLEQIERTIDAAQVIASVKDEVETPHFKLMFEEGYRALLPNPLGQTVEPEMDLLTNSAMIVREGIPNYHADKDIHVLASLFETMPDSPMSKLSQVIEQSGLAPEAWLECYLNRTLLPILKLFSNTGISLEAHVQNTLIELKDGIPDVCFVRDLEGICLSRTIATEKQLVPNVVAASSPVVYAHDEAWHRLKYYVVVNHLGHLVSTIGKATRNEVVLWQLVAHRLMTWKKEYANNAVFVDCVEDLYQTPTIAAKANLMSKLNDCGANPIYTHIPNPICHNKEVSYCESEGHHHHHH	soluble
PEIKDHLIMVGFGFSGKTISKAAKAAGIPYIILETNPDIVKQEKTKGERIQYGDATFGAVQEHAGIRNARVLITGISDSVATRKIVEKAKELNPNIYVIAKVRNLQEMKHLHHLGADEIIPEEYETSVEIFVRLLEKYLV	not soluble
MGSDKIHHHHHHMCASVLSRCGVALSQIQPIRCHLCQQTPCLTQCAEHNDTLNQHAAEYVKLVLAIGHHEPLYVDAYYGPAQWQAEASMLPLPELASRCASLVNQLANAGKDLSCQFLRDRHGFLSKQLGAVAAYLKRLMGQEFSFDVESRLLYDTQAPKLNLSDFSEVLARIDSLLPGEGSLTKRFDTYRSQFIVPADRVPQVFTAAVEQARLLTKRHLALPEGEQFRVEFVKDQIWTAYNWYQGDYASLIQLNQDHPLHLDRALELASHEGYPGHHVFNLLQEHELVKGLGWWEYAIYPLYSPISFLSEGSANYGLSLLMTKEERIDFEQRVLMPMAGIAGDLQHYHEVMVTYKALANLDTLVCRQLIDGEIQADEAARLLVEFALYTPEKAAQRVRFYQANRSYVLNYHHGEASVGEYVTNQVRDNAQAWEVFAALLARPRAASGIIR	not soluble
MGSDKIHHHHHHMKKYLLYMVQVHLNFRRAELESLADLYNLSIDFSQYDANSPFFIVELENDQQAKDWIKRSILTRGIYEYWGQGTTLDELHKDIQRQSNFEQDLQLKFKHSTFKFEFECYKGNSKAKRVEQIETFRYLGFEGKIDMKHPQEVFTVIEEYTPISENVGGKTPTRIYFGRQVQMSNRSAMEKYDLKKRPYKGTTSFEAELSLVSANIAQVKPGTIMYDPFAGTGSFLVAGGHFGSLVIGSDIDGRMIRGKGAQVNISANFKKYGESSQFLDVLTMDFTNNALRNNLVIDTILCDPPYGIRESIKVLGAKDPERFLGKEDMEIDGEKAYLRRDYIPTKKPYALDSLLDDLLQYSSERLPIGGRLAFWMPTANDANIETIVPMHENLELKYNCVQEFNKWSRRLLVYINRGSTFNGSSNHGIKRSKDNFRERYFNNFN	not soluble
MGSDKIHHHHHHMSSIIAALTYFFKEVLVFVSYVKNNAFPQPLSKEEERHYLKRMAEGDEEARNRLIEHNLRLVAHIVKKFENTREHTEDLISIGTIGLIKAIESFSEGKGTKLATYAARCIENEILMHLRALKKVKKDVSLHDPIGTDKEGNEITLIDVLQEDSEDIADSIQLKMEKKQIYEYIHVLDDREKEVIVGRFGLDLEEERTQREIAKELGISRSYVSRIEKRALMKLFHEFYKHNHGKG	not soluble
MSLQVSKFKNLPKIELHLHLDCSLSYDVVKKIDPTVDIKHYKSSFQAGESCSSLKDYLKCADNAIELMQTKENLQFIVEDLFKQLHDDNVIYAEIRFAPLLHCEGDLNAKKVVDIICMSALIQSKKYNIDYGLILCTLRHYSEDESLKTVKLVKEFSEKGVVGFDIAADEAGYPIDNHIKAFTYAKNNNLNITAHAGEAKGSESIWETINKLYAKRIGHGVRCLEDKKLVKFLSDNNYHLEICLTSNIKTNTFDLFTDHPINEIYDSSISLSLNTDGRAISNTSLSKEYAIAHSELNWSMKKIIQSNLNAIEHAFTTNEKKEKLRKHLKSFSEGHHHHHH	soluble
